The values below are quoted from earlier work in PMC5289555.

Bounds are passed on as bounds.

As a reminder, the Kd is the concentration at which binding is half-saturated.

In data set [1] the target is Hsp90 (Saccharomyces cerevisiae) (UniProt P02829).
The target of data set [2] is Hsp90 zipped construct (Saccharomyces cerevisiae) (UniProt P02829).

On to Hsp90 (from UniProt P02829), for which the dissociation constant (Kd) in data set [1] is 60 nM.
In the case of “Hsp90 zipped construct (from UniProt P02829)”, the Kd in data set [2] is < 0.001 nM.
